How the values were obtained:
Test in all cases: two-hybrid library CCNG1;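 also: natural log of median RNA to DNA barcode read ratio; higher means stronger binding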
P11A-bS = molecular target: T1, P11A-bS
T1 chain: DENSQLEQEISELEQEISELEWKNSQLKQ

P12A-bS = molecular target: T2, P12A-bS
T2 chain: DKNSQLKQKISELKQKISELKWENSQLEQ

P1A-bS = molecular target: T3, P1A-bS
T3 chain: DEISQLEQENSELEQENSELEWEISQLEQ

P2A-bS = molecular target: T4, P2A-bS
T4 chain: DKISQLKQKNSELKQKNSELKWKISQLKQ

P3A-bS = molecular target: T5, P3A-bS
T5 chain: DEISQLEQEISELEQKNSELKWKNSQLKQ

P4A-bS = molecular target: T6, P4A-bS
T6 chain: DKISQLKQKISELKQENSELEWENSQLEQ

P5A-bS = molecular target: T7, P5A-bS
T7 chain: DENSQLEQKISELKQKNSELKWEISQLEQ

P6A-bS = molecular target: T8, P6A-bS
T8 chain: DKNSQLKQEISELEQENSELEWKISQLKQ

P7A-bS = molecular target: T9, P7A-bS
T9 chain: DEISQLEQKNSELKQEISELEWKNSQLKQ

P8A-bS = molecular target: T10, P8A-bS
T10 chain: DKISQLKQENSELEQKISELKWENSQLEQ

P9A-bS = molecular target: T11, P9A-bS
T11 chain: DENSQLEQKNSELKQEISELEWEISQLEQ

## DKNSQLKQENSELEQKISELKWKISQLKQ [P10A-bS]
P11A-bS
  interaction score: -0.138
P12A-bS
  interaction score: -0.0445
P1A-bS
  interaction score: -2.5
P2A-bS
  interaction score: -0.0157
P3A-bS
  interaction score: -0.693
P4A-bS
  interaction score: -0.106
P5A-bS
  interaction score: -1.76
P6A-bS
  interaction score: -1.53
P7A-bS
  interaction score: -0.464
P8A-bS
  interaction score: -0.395

## DKNSQLKQKISELKQKISELKWENSQLEQ [P12A-bS]
P12A-bS
  interaction score: -1.48
P1A-bS
  interaction score: -0.648
P2A-bS
  interaction score: -1.69
P3A-bS
  interaction score: -2.43
P4A-bS
  interaction score: -1.12
P5A-bS
  interaction score: -2.21
P6A-bS
  interaction score: -0.87
P7A-bS
  interaction score: -0.873
P8A-bS
  interaction score: -1.07
P9A-bS
  interaction score: -0.676

— publication PMC10397247
